The values that follow come from paper PMC3617563 (Biochemistry, 2012).

Where two headings read alike, the source gives them in different places.

One may read the koff as a measure of how fast the partners let go of each other. Higher therefore signals a short-lived complex. Broadly, the kon is the second-order rate constant of association. Lower therefore signals slow association. As a reminder, the Kd is the free concentration of one partner at which half of the binding sites on the other are occupied at equilibrium, for simple one-to-one binding. Low values mean tighter binding, high ones weaker binding.

The target of test [1] is T1, native ubiquitin (monoubiquitin) (UniProt P0CG48 1-76). As to the kind of experiment: stopped-flow fluorescence.
For test [2], the target named is T2, Ub-AMC (ubiquitin-7-amino-4-methylcoumarin) (human, UniProt P0CG48 1-75, 7-amino-4-methylcoumarin (AMC) on the C-terminal glycine). As to the kind of experiment: other fluorescence titration.
Test [3] has as its target T2, Ub-AMC …. The test can be described thus: stopped-flow fluorescence.
In test [4] the target is T2, Ub-AMC …. The test can be described thus: stopped-flow fluorescence. This is another data set of the same source.
Test [5] addresses T1, native ubiquitin (monoubiquitin). As to the kind of experiment: stopped-flow fluorescence. This is another data set of the same source.

B1: wild-type USP2 catalytic core (human ubiquitin-specific protease 2, amino acids 259 to 605) (domain or fragment, UniProt O75604 259-605, looked up)
chain: NSKSAQGLAGLRNLGNTCFMNSILQCLSNTRELRDYCLQRLYMRDLHHGSNAHTALVEEFAKLIQTIWTSSPNDVVSPSEFKTQIQRYAPRFVGYNQQDAQEFLRFLLDGLHNEVNRVTLRPKSNPENLDHLPDDEKGRQMWRKYLEREDSRIGDLFVGQLKSSLTCTDCGYCSTVFDPFWDLSLPIAKRGYPEVTLMDCMRLFTKEDVLDGDEKPTCCRCRGRKRCIKKFSIQRFPKILVLHLKRFSESRIRTSKLTTFVNFPLRDLDLREFASENTNHAVYNLYAVSNHSGTTMGGHYTAYCRSPGTGEWHTFNDSSVTPMSSSQVRTSDAYLLFYELASPPSRM
With B1, in test [1], the off-rate constant (koff) is 2.64 ± 0.56 s⁻¹ and the on-rate (kon) is 400000 ± 10000 M⁻¹ s⁻¹.

B2: C276A USP2 catalytic core (inactive active-site mutant) (domain or fragment, human, UniProt O75604 259-605, looked up)
chain: NSKSAQGLAGLRNLGNTAFMNSILQCLSNTRELRDYCLQRLYMRDLHHGSNAHTALVEEFAKLIQTIWTSSPNDVVSPSEFKTQIQRYAPRFVGYNQQDAQEFLRFLLDGLHNEVNRVTLRPKSNPENLDHLPDDEKGRQMWRKYLEREDSRIGDLFVGQLKSSLTCTDCGYCSTVFDPFWDLSLPIAKRGYPEVTLMDCMRLFTKEDVLDGDEKPTCCRCRGRKRCIKKFSIQRFPKILVLHLKRFSESRIRTSKLTTFVNFPLRDLDLREFASENTNHAVYNLYAVSNHSGTTMGGHYTAYCRSPGTGEWHTFNDSSVTPMSSSQVRTSDAYLLFYELASPPSRM
Turning to B2, the values for the Kd in test [2] and in test [3] were 2.9 ± 0.6 µM and 5.5 µM, respectively. Also, the off-rate (koff) is 1.82 ± 0.17 s⁻¹ in test [4] and 7.54 ± 2.6 s⁻¹ in test [5]. The association rate constant (kon) was 330000 ± 20000 M⁻¹ s⁻¹ in test [4] and 480000 ± 50000 M⁻¹ s⁻¹ in test [5].
